# Literature values as cited in publication PMC11901361.
# Biological target: folate receptor alpha (Homo sapiens) (UniProt P15328)
# Sequence (P15328 25-234): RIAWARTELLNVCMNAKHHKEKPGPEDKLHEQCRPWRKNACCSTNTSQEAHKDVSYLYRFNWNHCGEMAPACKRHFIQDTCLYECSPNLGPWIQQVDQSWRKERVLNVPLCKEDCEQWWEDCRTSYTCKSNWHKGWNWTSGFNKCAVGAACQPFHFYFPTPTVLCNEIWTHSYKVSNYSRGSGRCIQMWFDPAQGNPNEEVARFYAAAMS
substance,measurement,value
farletuzumab,Kd,2000 nM
